In publication PMC9501438 (International Journal of Molecular Sciences, 2022):

B1: Arkadia 119 aa polypeptide (domain or fragment)
chain: FRGNFEELIHLEERLGNVNRGASQGTIERCTYPHKYKKVTTDWFSQRKLHCKQDGEEGTEEDTEEKCTICLSILEEGEDVRRLPCMHLFHQVCVDQWLITNKKCPICRVDIEAQLPSES
notes: Cloned into pGEX-4T-1; source: E. coli, purified (GST-trap, thrombin cleavage, Superdex 75 SEC); not shown: GST, N-terminal, cleaved
B2: Arkadia 90 aa polypeptide (domain or fragment)
chain: CTYPHKYKKVTTDWFSQRKLHCKQDGEEGTEEDTEEKCTICLSILEEGEDVRRLPCMHLFHQVCVDQWLITNKKCPICRVDIEAQLPSES
notes: Arkadia (RNF111), human, isoform 1, residues 905-994: NLS, the segment unique to isoform 1 and the RING-H2 domain; Cloned into pGEX-4T-1; also called Ark 90 aa; source: E. coli, purified (GST-trap, thrombin cleavage, Superdex 75 SEC); not shown: GST, N-terminal, cleaved
B3: Arkadia RING 68 aa (domain or fragment)
chain: KQDGEEGTEEDTEEKCTICLSILEEGEDVRRLPCMHLFHQVCVDQWLITNKKCPICRVDIEAQLPSES
notes: Cloned into pGEX-4T-1; also called Ark RING 68aa; Ark 68 aa; source: E. coli, purified (GST-trap, thrombin cleavage, Superdex 75 SEC); not shown: GST, N-terminal, cleaved

Legend:
UBCH5B [1] = target: T1, UBCH5B (UniProt P62837 1-147); assay: ITC; Microcal PEAQ ITC, 25 °C; 75-200 uM Arkadia polypeptide in the cell, 0.75-2 mM UBCH5B from the syringe in 2 uL injections; single site-binding model; conditions: both partners purified
T1 construct: UBCH5B, E2 ubiquitin-conjugating enzyme, wild type; 15N-labelled in the NMR titrations; also called E2 enzyme UBCH5B; wt UBCH5B

UBCH5B [2] = target: T1, UBCH5B; assay: as above; conditions: both partners purified; remark: listed apart in the source

Binder | Kd (UBCH5B [1]) | Kd (UBCH5B [2])
B1 | 2.7 µM | 
B2 |  | 23 µM
B3 | 32 µM | 
